Literature values in patent EP1666054A1, “Method for administering insulinotropic peptides” (priority 1998, dated 2006).

Settings: pulmonary delivery; calculated, background statement

parathyroid hormone (1-34)
Absorption values (delivered through the lungs): fifteen
